The target of assay [1] is human G protein-coupled receptor class C group 5 member D (GPRC5D) protein (human) (UniProt Q9NZD1). The assay can be described thus: flow cytometry (FACS) on CHO-GPRC5D cells. Background: Flow cytometry measures light scatter and fluorescence of single cells or particles in a stream.
For assay [2] the target is unchanged. Description: flow cytometry (FACS) on MM1S myeloma cells.
Assay [3] has the same target. Description: flow cytometry (FACS) on K562-GPRC5D cells.
Assay [4] concerns the target T1, N-terminal peptide of human GPRC5D (1-27), biotin-labelled (human, labeled with biotin (EZ-Link Sulfo-NHS-LC-Biotin)).
T1 construct: Immobilised on an SA sensor at 20 nM; also called N-terminal peptide (Biotin) of GPRC5D
T1 peptide: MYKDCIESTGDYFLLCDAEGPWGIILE
The assay can be described thus: BLI (Octet RED384), biotinylated peptide on SA sensor; fit R2 0.7914, model called not credible. The text has this:
(§1) The G5VHH1 and G5VHH2 antibody sequences were cloned into an eukaryotic vector containing p3.4-hIgG1Fc of a human IgG1 Fc fragment (hIgG1Fc) sequence, facilitating the recombinant expression of GPRC5D VHH-hIgG1Fc to give a recombinant protein which was then purified to determine the affinity of G5VHH1-hIgG1Fc and G5VHH2-hIgG1Fc to the affinity N-terminal peptide (Biotin) of GPRC5D. Briefly, the N-terminal peptide of human GPRC5D (>sp|Q9NZD1|1-27: […]) protein was labeled with biotin (EZ-Link Sulfo-NHS-LC-Biotin, Pierce, 21327). By the biolayer interferometry (BLI) technique, the binding kinetics between antigen and antibody was analyzed using the molecular interaction analyzer fortebiooctetRED384 (PALL) (wherein both antigen and antibody were diluted with a PBS buffer containing 0.1% BSA and 0.02% Tween 20). The biotin-conjugated antigen with a concentration of 20 nM was immobilized to an SA sensor, and bound for 3 min; then bound with double-diluted antibody solution (G5VHH1 and G5VHH2 antibodies) for 5 min; and finally dissociated for 5 min. The obtained results were analyzed by Octet Data Analysis 9.0 software (fortebio) to calculate the binding strength between the antigen and the antibody, thereby giving the KD value, Ka (1/Ms) value and Kd (1/s) value. […]
On the technique in general: BLI is a label-free optical method that tracks binding on a fibre tip over time.

Assay [5] has as its target T2, human G protein-coupled receptor class C group 5 member D (GPRC5D) protein (human, UniProt Q9NZD1 1-345).
T2 construct: whole, on cells; The same protein on several cell lines; also called HuGPRC5D; CHO-GPRC5D
Description: flow cytometry on GPRC5D-CHO cells, anti-human IgG Fc secondary antibody. How it is done:
CHO-GPRC5D target cells were formulated with PBS buffer to a concentration of 1×10⁶ cells/mL, and added into a 96-well sharp-bottom plate (corning 3894) with 30 μL in each well. The antibodies to be detected, G5VHH1-hIgG1Fc and G5VHH2-hIgG1Fc were formulated with PBS buffer to a concentration of 30 μg/mL, and subject to 3-fold dilution to form a gradient of 8 concentrations (with the minimum concentration of 0). The formulated antibodies with different concentrations were mixed well with the plated target cells at 30 μL/well, and incubated in a refrigerator at 4° C. for 1 hr. 150 μL of buffer was added into each well, and centrifuged at 300 g for 5 min. The supernatant was then discarded, and the cells were additionally washed once. Goat-anti-human IgG (Fc-specific, ab98593) fluorescent secondary antibody was formulated with buffer at a ratio of 1:200, added into each well in an amount of 30 μl and mixed with the cells uniformly, and incubated in the refrigerator at 4° C. for 30 min. 170 μL of buffer was added to each well, and centrifuged at 300 g for 5 min. The supernatant was then discarded and the cells were additionally washed once. 35 μL of buffer was added into each well, mixed well, and the mixture was detected by iQue Screener Flow Cytometer (available from IntelliCyt Company). […]

In assay [6] the target is T2, human G protein-coupled receptor class …. The assay can be described thus: flow cytometry (FACS) on CHO-GPRC5D cells.
Assay [7] shares this target. Description: flow cytometry (FACS) on K562-GPRC5D cells.
For assay [8] the target is unchanged. The assay can be described thus: flow cytometry (FACS) on MM1S myeloma cells. The protocol: The target cells (i.e., MM1S myeloma cells) were formulated with buffer to a concentration of 1×10⁶ cells/mL, and added into a 96-well sharp-bottom plate (corning 3894) with 30 μL in each well. The antibody to be detected was formulated with buffer to a concentration of 10 μg/mL, and subject to 3-fold dilution to form a gradient of 8 concentrations. The formulated antibodies of different concentrations were mixed well with the plated target cells at 30 μL/well, and incubated in a refrigerator at 4° C. for 1 hr. 150 μL of buffer was added into each well, and centrifuged at 300 g for 5 min. The supernatant was discarded, and then the cells were loosened up by shaking, and additionally washed once. The fluorescent secondary antibody (ab98593) was formulated with buffer at a ratio of 1:200, added into each well in an amount of 30 μl and mixed with the cells uniformly, and incubated in the refrigerator at 4° C. for 30 min. 150 μL of buffer was added to each well, and centrifuged at 300 g for 5 min. The supernatant was discarded, and then the cells were loosened up by shaking, and additionally washed once. 35 μL of buffer was added into each well, mixed well, and the mixture was measured by a flow cytometer. Of those, ET150-5scFv is a positive control antibody with the sequence found in the patent application CN107428829A, 3B5VHH has an amino acid sequence as set forth in SEQ ID NO: 15, 3E7VHH has an amino acid sequence as set forth in SEQ ID NO: 19, 4A2VHH has an amino acid sequence as set forth in SEQ ID NO: 24, and 4B3VHH has an amino acid sequence as set forth in SEQ ID NO: 30.

For assay [9], the target named is T1, N-terminal peptide of human GPRC5D …. Description: BLI (Octet RED384), biotinylated peptide on SA sensor, antibody in solution.
From the text: as §1

T2 sequence (Q9NZD1 whole entry): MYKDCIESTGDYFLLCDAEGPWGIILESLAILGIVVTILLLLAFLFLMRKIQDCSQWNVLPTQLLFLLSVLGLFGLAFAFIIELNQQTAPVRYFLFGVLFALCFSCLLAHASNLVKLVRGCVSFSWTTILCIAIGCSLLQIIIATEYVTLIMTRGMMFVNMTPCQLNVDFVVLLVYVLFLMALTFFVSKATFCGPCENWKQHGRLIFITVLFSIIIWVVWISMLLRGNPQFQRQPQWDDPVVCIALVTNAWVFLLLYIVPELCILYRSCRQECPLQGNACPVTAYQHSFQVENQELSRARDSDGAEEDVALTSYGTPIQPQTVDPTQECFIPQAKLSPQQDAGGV

B1: ET150-5 scFv (scFv, from another filing)
scFv: QSVLTQPPSASGTPGQRVTISCSGSRSNVGGNYVFWYQQVPGATPKLLIYRSNQRPSGVPDRFAGSKSGSSASLAISGLRSEDEADYYCATWDDSLSGFVFGTGTKVTVLGSRGGGGSGGGGSGGGGSLEMAEVQLVESGGGLVKPGGSLRLSCAASGFTFSDYYMSWIRQAPGKGLEWVSYISSSGSTIYYADSVKGRFTISRDNAKNSLYLQMNSLRAEDTAVYYCARGYGKAYDQWGQGTLVTVSS
With B1, the values for the EC50 in assay [1], in [2] and in assay [3] were 0.249 µg/mL, 0.911 µg/mL and 0.431 µg/mL, respectively.

B2: G5VHH1-hIgG1Fc (Fc fusion)
chain: EVQLVESGGGLVQPGGSLRLSCAASGRIFSRDAMGWFRQAPGKGRELVAAINSSGGNTYYPDSVEGRFTISRDNAKRMVYLQMNSLRAEDTAVYYCAARGVRWTSTTAYGYNYWGQGTQVTVSS
notes: also called G5VHH1 antibody; not shown: human IgG1 Fc fragment (hIgG1Fc) of vector p3.4-hIgG1Fc
For B2, in assay [4], the binding result is given as “no binding”. The EC50 (read off the curve) (in general, the concentration at which the effect is half-maximal) in [5] is about 1 µg/mL.

B3: 3E7 VHH (VHH)
VHH: EVQLVESGGGLVQPGGSLRLSCAASGRIFSRDAMGWFRQAPGKGRELVAAINSSGGNTYYPDSVEGRFTISRDNAKRMVYLQMNSLRAEDTAVYYCAARGVRWTSTTAYGYNYWGQGTQVTVSS
notes: also called G5VHH1
With B3, the EC50 (as a rule, the concentration at which the effect is half-maximal) in [6] worked out at 0.426 µg/mL; in assay [7], 0.576 µg/mL; in [8], 0.286 µg/mL.

B4: 3B5 VHH (VHH)
VHH: EVQLVESGGGLVQPGGSLRLSCAASGFIFSRYGMGWFRQAPGKGRELVAAINWSDGTTYYPDSVEGRFTISRDNAKRMVYLQMNSLRAEDTAVYYCAADRRLRSQTGYDYWGQGTQVTVSS
notes: From the synthetic nanobody library NanoOri_1.0 (Caplacizumab backbone)
Turning to B4, the EC50 came out at 0.103 µg/mL in assay [6], 0.207 µg/mL in assay [7] and 0.0439 µg/mL in [8].

B5: G5VHH2-hIgG1Fc (Fc fusion)
chain: EVQLVESGGGLVQPGGSLRLSCAASGLIFSRYVMGWFRQAPGKGRELVAFINSSGGSTNYPDSVEGRFTISRDNAKRMVYLQMNSLRAEDTAVYYCAASSRTSTTRGYNYWGQGTQVTVSS
notes: also called G5VHH2 antibody; not shown: human IgG1 Fc fragment (hIgG1Fc) of vector p3.4-hIgG1Fc
In the case of B5, in [5], the “EC50 (read off the curve)” value was about 0.4 µg/mL. Besides, the Kd (in general, the equilibrium constant for the complex coming apart) in assay [9] is 76.9 nM.

B6: 4B3 VHH (VHH)
VHH: EVQLVESGGGLVQPGGSLRLSCAASGLIFSRYVMGWFRQAPGKGRELVAFINSSGGSTNYPDSVEGRFTISRDNAKRMVYLQMNSLRAEDTAVYYCAASSRTSTTRGYNYWGQGTQVTVSS
notes: also called G5VHH2
With B6, the EC50 stood at 0.18 µg/mL in assay [6], 0.216 µg/mL in assay [7] and 0.658 µg/mL in assay [8].

B7: 4A2 VHH (VHH)
VHH: EVQLVESGGGLVQPGGSLRLSCAASGFIFSRYDMGWFRQAPGKGRELVAVITWGGGSTYYPDSVEGRFTISRDNAKRMVYLQMNSLRAEDTAVYYCAARSASAYRTGRLEYNYWGQGTQVTVSS
Turning to B7, the EC50 in assay [6] amounted to 0.0687 µg/mL; in assay [7], 0.164 µg/mL; in assay [8] it was 0.0195 µg/mL.

The record behind these values is patent publication US20250057950A1 (ORICELL THERAPEUTICS, published 2025).
